According to patent US6693184B1, “DNA molecules encoding splice variants of the human melanocortin 1 receptor protein” (Merck & Co., Inc., priority 1998, dated 2004):
Blank lines part the entries; values can stand above or below the molecule they belong to.

What was measured:
[1] = test system: MC-1RB; experiment: cAMP functional receptor assay in COS-7 cells transfected with MC-1RB expression plasmids; assay type: cell-based, human; details: for rise in intracellular cAMP formation: maximum agonist concentration, compared to background response in sham-transfected COS-7 cells; for approximate rank order of potency in eliciting the cAMP response: COS-7 cells transiently expressing MC-R1B
Protocol: cAMP Functional Receptor Assay—Receptor-mediated stimulation of cyclic AMP (cAMP) formation was assayed in COS-7 cells transfected with MC-1RB expression plasmids. Cells expressing MC-1RB were dissociated from tissue culture flasks by rinsing with Ca and Mg free phosphate buffered saline (Life Technologies, Gaithersburg, Md.) and detached following 5 min. incubation with enzyme-free dissociation buffer (Specialty Media, Lavellette, N.J.). Cells were collected by centrifugation and resuspended in Earle's Balanced Salt Solution (EBSS) (Life Technologies, Gaithersburg, Md.) with additions of 10 mM HEPES pH 7.5, 5 mM MgCl2, 1 mM glutamine and 1 mg/ml bovine serum albumin. Cells are counted and diluted to 2 to 4×10^6/ml. The phosphodiesterace inhibitor 3-isobutyl-1-methylxanthine was added at a concentration of 0.6 mM. Test peptides were diluted in EBSS with above additions and 10% DMSO; 0.1 vol of compounds added to 0.9 vol of cells. After room temperature incubation for 40 min., cells are lysed by incubation at 100° C. for 5 min. to release accumulated cAMP. cAMP is measured in an aliquot of the cell lysate with the Amersham (Arlington Heights, Ill.) cAMP detection assay (RPA556).
Previous studies (Mountjoy, et al., 1992, Science 257:1248-1251 [see also U.S. Pat. No. 5,532,347]; Chhajlani and Wikberg, 1992, FEBS Letters 309:417-420) has documented that activation of the MC-1RA isoform by melanocortin agonists results in an elevation of intracellular cAMP production through the coupling of G-proteins to activation of membrane-bound adenylate cyclase.

[2] = target: human MC-R1B receptor (splice variant of the human melanocortin-1 receptor, 382 amino acids) (human); experiment: cell-based or functional assay
[3] = target: human MC-R1B receptor (splice variant of the human melanocortin-1 receptor, 382 amino acids) (human); experiment: displacement of 200 pM [125I]-NDP-αMSH from crude membranes of COS-7 cells expressing human MC-R1B
[4] = target: human MC-R1B receptor (splice variant of the human melanocortin-1 receptor, 382 amino acids) (human); experiment: radioligand binding, membranes of COS-7 cells expressing MC-R1B

Molecule: SHU-9119
- rise in intracellular cAMP formation [1]: ~3 fold

Molecule: NDP-αMSH
- approximate rank order of potency in eliciting the cAMP response [1]: MT-II>NDP-MSH>SHU-9119>αMSH>βMSH>γMSH
- rise in intracellular cAMP formation [1]: ~3 fold

- intracellular cAMP formation in COS-7 cells transiently expressing MC-R1B [2]: 3 fold
Molecule: γMSH (from UniProt P01189 77-88) (peptide)

- intracellular cAMP formation in COS-7 cells transiently expressing MC-R1B [2]: 3 fold
- IC50 [3]: 0.2 nM
Molecule: MT-II (peptide)

Molecule: βMSH: β-melanocyte stimulating hormone, melanocortin peptide derived from the POMC gene
- approximate rank order of potency in eliciting the cAMP response [1]: MT-II>NDP-MSH>SHU-9119>αMSH>βMSH>γMSH
- rise in intracellular cAMP formation [1]: ~3 fold

- intracellular cAMP formation in COS-7 cells transiently expressing MC-R1B [2]: 3 fold
Molecule: βMSH (from UniProt P01189 213-234) (peptide)

Molecule: αMSH
- approximate rank order of potency in eliciting the cAMP response [1]: MT-II>NDP-MSH>SHU-9119>αMSH>βMSH>γMSH
- rise in intracellular cAMP formation [1]: ~3 fold

- intracellular cAMP formation in COS-7 cells transiently expressing MC-R1B [2]: 3 fold
- IC50 [3]: 0.7 nM
Molecule: NDP-αMSH (unlabelled) (peptide)

- intracellular cAMP formation in COS-7 cells transiently expressing MC-R1B [2]: 3 fold
- IC50 [3]: 0.7 nM
Molecule: SHU-9119 (peptide)

Molecule: MT-II
- approximate rank order of potency in eliciting the cAMP response [1]: MT-II>NDP-MSH>SHU-9119>αMSH>βMSH>γMSH
- rise in intracellular cAMP formation [1]: ~3 fold

- specific binding (percent of total binding) (% of total binding) [4]: > 90
Molecule: [125I]-NDP-αMSH (peptide)

- intracellular cAMP formation in COS-7 cells transiently expressing MC-R1B [2]: 3 fold
- IC50 [3]: 5 nM
B1: αMSH (peptide, UniProt P01189 138-150, looked up)
peptide: SYSMEHFRWGKPV

- IC50 [3]: 5 nM
B2: ACTH (peptide, UniProt P01189 138-176, looked up)
peptide: SYSMEHFRWGKPVGKKRRPVKVYPNGAEDESAEAFPLEF
